Measured values reported in publication PMC7026398, “Structural and functional insight into the effect of AFF4 dimerization on activation of HIV-1 proviral transcription” (Cell Discovery, 2020).

B1: Flag-AFF4 F1014A, full length (natural protein)
chain: MNREDRNVLRMKERERRNQEIQQGEDAFPPSSPLFAEPYKVTSKEDKLSSRIQSMLGNYDEMKDFIGDRSIPKLVAIPKPTVPPSADEKSNPNFFEQRHGGSHQSSKWTPVGPAPSTSQSQKRSSGLQSGHSSQRTSAGSSSGTNSSGQRHDRESYNNSGSSSRKKGQHGSEHSKSRSSSPGKPQAVSSLNSSHSRSHGNDHHSKEHQRSKSPRDPDANWDSPSRVPFSSGQHSTQSFPPSLMSKSNSMLQKPTAYVRPMDGQESMEPKLSSEHYSSQSHGNSMTELKPSSKAHLTKLKIPSQPLDASASGDVSCVDEILKEMTHSWPPPLTAIHTPCKTEPSKFPFPTKESQQSNFGTGEQKRYNPSKTSNGHQSKSMLKDDLKLSSSEDSDGEQDCDKTMPRSTPGSNSEPSHHNSEGADNSRDDSSSHSGSESSSGSDSESESSSSDSEANEPSQSASPEPEPPPTNKWQLDNWLNKVNPHKVSPASSVDSNIPSSQGYKKEGREQGTGNSYTDTSGPKETSSATPGRDSKTIQKGSESGRGRQKSPAQSDSTTQRRTVGKKQPKKAEKAAAEEPRGGLKIESETPVDLASSMPSSRHKAATKGSRKPNIKKESKSSPRPTAEKKKYKSTSKSSQKSREIIETDTSSSDSDESESLPPSSQTPKYPESNRTPVKPSSVEEEDSFFRQRMFSPMEEKELLSPLSEPDDRYPLIVKIDLNLLTRIPGKPYKETEPPKGEKKNVPEKHTREAQKQASEKVSNKGKRKHKNEDDNRASESKKPKTEDKNSAGHKPSSNRESSKQSAAKEKDLLPSPAGPVPSKDPKTEHGSRKRTISQSSSLKSSSNSNKETSGSSKNSSSTSKQKKTEGKTSSSSKEVKEKAPSSSSNCPPSAPTLDSSKPRRTKLVFDDRNYSADHYLQEAKKLKHNADALSDRFEKAVYYLDAVVSFIECGNALEKNAQESKSPFPMYSETVDLIKYTMKLKNYLAPDATAADKRLTVLCLRCESLLYLRLAKLKKENALKYSKTLTEHLKNSYNNSQAPSPGLGSKAVGMPSPVSPKLSPGNSGNYSSGASSASASGSSVTIPQKIHQMAASYVQVTSNFLYATEIWDQAEQLSKEQKEFFAELDKVMGPLIFNASIMTDLVRYTRQGLHWLRQDAKLIS
B2: Flag-AFF4 Y1096A, full length (natural protein)
chain: MNREDRNVLRMKERERRNQEIQQGEDAFPPSSPLFAEPYKVTSKEDKLSSRIQSMLGNYDEMKDFIGDRSIPKLVAIPKPTVPPSADEKSNPNFFEQRHGGSHQSSKWTPVGPAPSTSQSQKRSSGLQSGHSSQRTSAGSSSGTNSSGQRHDRESYNNSGSSSRKKGQHGSEHSKSRSSSPGKPQAVSSLNSSHSRSHGNDHHSKEHQRSKSPRDPDANWDSPSRVPFSSGQHSTQSFPPSLMSKSNSMLQKPTAYVRPMDGQESMEPKLSSEHYSSQSHGNSMTELKPSSKAHLTKLKIPSQPLDASASGDVSCVDEILKEMTHSWPPPLTAIHTPCKTEPSKFPFPTKESQQSNFGTGEQKRYNPSKTSNGHQSKSMLKDDLKLSSSEDSDGEQDCDKTMPRSTPGSNSEPSHHNSEGADNSRDDSSSHSGSESSSGSDSESESSSSDSEANEPSQSASPEPEPPPTNKWQLDNWLNKVNPHKVSPASSVDSNIPSSQGYKKEGREQGTGNSYTDTSGPKETSSATPGRDSKTIQKGSESGRGRQKSPAQSDSTTQRRTVGKKQPKKAEKAAAEEPRGGLKIESETPVDLASSMPSSRHKAATKGSRKPNIKKESKSSPRPTAEKKKYKSTSKSSQKSREIIETDTSSSDSDESESLPPSSQTPKYPESNRTPVKPSSVEEEDSFFRQRMFSPMEEKELLSPLSEPDDRYPLIVKIDLNLLTRIPGKPYKETEPPKGEKKNVPEKHTREAQKQASEKVSNKGKRKHKNEDDNRASESKKPKTEDKNSAGHKPSSNRESSKQSAAKEKDLLPSPAGPVPSKDPKTEHGSRKRTISQSSSLKSSSNSNKETSGSSKNSSSTSKQKKTEGKTSSSSKEVKEKAPSSSSNCPPSAPTLDSSKPRRTKLVFDDRNYSADHYLQEAKKLKHNADALSDRFEKAVYYLDAVVSFIECGNALEKNAQESKSPFPMYSETVDLIKYTMKLKNYLAPDATAADKRLTVLCLRCESLLYLRLFKLKKENALKYSKTLTEHLKNSYNNSQAPSPGLGSKAVGMPSPVSPKLSPGNSGNYSSGASSASASGSSVTIPQKIHQMAASAVQVTSNFLYATEIWDQAEQLSKEQKEFFAELDKVMGPLIFNASIMTDLVRYTRQGLHWLRQDAKLIS
B3: AFF1-THD (953-1210), wild type (domain or fragment, UniProt P51825 953-1210, looked up)
chain: GKPQVKFDKQQADLHMREAKKMKQKAELMTDRVGKAFKYLEAVLSFIECGIATESESQSSKSAYSVYSETVDLIKFIMSLKSFSDATAPTQEKIFAVLCMRCQSILNMAMFRCKKDIAIKYSRTLNKHFESSSKVAQAPSPCIASTGTPSPLSPMPSPASSVGSQSSAGSVGSSGVAATISTPVTIQNMTSSYVTITSHVLTAFDLWEQAEALTRKNKEFFARLSTNVCTLALNSSLVDLVHYTRQGFQQLQELTKTP
notes: AFF1 THD, residues 953-1210; the limits 953-1210 fit human AFF1; also called wild-type AFF1-THD; source: E. coli BL21 (DE3), purified (Ni-NTA, Hi-Trap SP HP, TEV digestion, Superdex 200); not shown: His6, N-terminal, cleaved
B4: AFF1-THD F1063A (domain or fragment, UniProt P51825 953-1210, looked up)
chain: GKPQVKFDKQQADLHMREAKKMKQKAELMTDRVGKAFKYLEAVLSFIECGIATESESQSSKSAYSVYSETVDLIKFIMSLKSFSDATAPTQEKIFAVLCMRCQSILNMAMARCKKDIAIKYSRTLNKHFESSSKVAQAPSPCIASTGTPSPLSPMPSPASSVGSQSSAGSVGSSGVAATISTPVTIQNMTSSYVTITSHVLTAFDLWEQAEALTRKNKEFFARLSTNVCTLALNSSLVDLVHYTRQGFQQLQELTKTP
notes: AFF1 THD, residues 953-1210, with F1063A; also called AFF1^F1063A; source: E. coli BL21 (DE3), purified (Ni-NTA, Hi-Trap SP HP, TEV digestion, Superdex 200); not shown: His6, N-terminal, cleaved
B5: AFF1-THD F1063A+Y1145A (domain or fragment, UniProt P51825 953-1210, looked up)
chain: GKPQVKFDKQQADLHMREAKKMKQKAELMTDRVGKAFKYLEAVLSFIECGIATESESQSSKSAYSVYSETVDLIKFIMSLKSFSDATAPTQEKIFAVLCMRCQSILNMAMARCKKDIAIKYSRTLNKHFESSSKVAQAPSPCIASTGTPSPLSPMPSPASSVGSQSSAGSVGSSGVAATISTPVTIQNMTSSAVTITSHVLTAFDLWEQAEALTRKNKEFFARLSTNVCTLALNSSLVDLVHYTRQGFQQLQELTKTP
notes: AFF1 THD, residues 953-1210, with F1063A and Y1145A; source: E. coli BL21 (DE3), purified (Ni-NTA, Hi-Trap SP HP, TEV digestion, Superdex 200); not shown: His6, N-terminal, cleaved
B6: AFF1-THD Y1145A (domain or fragment, UniProt P51825 953-1210, looked up)
chain: GKPQVKFDKQQADLHMREAKKMKQKAELMTDRVGKAFKYLEAVLSFIECGIATESESQSSKSAYSVYSETVDLIKFIMSLKSFSDATAPTQEKIFAVLCMRCQSILNMAMFRCKKDIAIKYSRTLNKHFESSSKVAQAPSPCIASTGTPSPLSPMPSPASSVGSQSSAGSVGSSGVAATISTPVTIQNMTSSAVTITSHVLTAFDLWEQAEALTRKNKEFFARLSTNVCTLALNSSLVDLVHYTRQGFQQLQELTKTP
notes: AFF1 THD, residues 953-1210, with Y1145A; also called AFF1^Y1145A; source: E. coli BL21 (DE3), purified (Ni-NTA, Hi-Trap SP HP, TEV digestion, Superdex 200); not shown: His6, N-terminal, cleaved
B7: human AFF4-THD (902-1163), wild type (domain or fragment, UniProt Q9UHB7 902-1163, looked up)
chain: RRTKLVFDDRNYSADHYLQEAKKLKHNADALSDRFEKAVYYLDAVVSFIECGNALEKNAQESKSPFPMYSETVDLIKYTMKLKNYLAPDATAADKRLTVLCLRCESLLYLRLFKLKKENALKYSKTLTEHLKNSYNNSQAPSPGLGSKAVGMPSPVSPKLSPGNSGNYSSGASSASASGSSVTIPQKIHQMAASYVQVTSNFLYATEIWDQAEQLSKEQKEFFAELDKVMGPLIFNASIMTDLVRYTRQGLHWLRQDAKLIS
notes: AFF4 THD (TPRL with Handle Region Dimerization Domain, C-terminal homology domain), human, residues 902-1163; A selenomethionyl form was used for phasing only; The general purification text tells of TEV digestion and removal of the His6-tag, but only the N-terminal tag of AFF1-THD is called removable; also called AFF-THD; THD of AFF4; source: E. coli BL21 (DE3), purified (Ni-NTA, Hi-Trap SP HP, …)
B8: AFF4-THD T1100A+Y1096F (domain or fragment, human, UniProt Q9UHB7 902-1163, looked up)
chain: RRTKLVFDDRNYSADHYLQEAKKLKHNADALSDRFEKAVYYLDAVVSFIECGNALEKNAQESKSPFPMYSETVDLIKYTMKLKNYLAPDATAADKRLTVLCLRCESLLYLRLFKLKKENALKYSKTLTEHLKNSYNNSQAPSPGLGSKAVGMPSPVSPKLSPGNSGNYSSGASSASASGSSVTIPQKIHQMAASFVQVASNFLYATEIWDQAEQLSKEQKEFFAELDKVMGPLIFNASIMTDLVRYTRQGLHWLRQDAKLIS
notes: AFF4 THD, human, residues 902-1163, with T1100A and Y1096F; PDB 6K7P is the wild-type parent of the same limits; source: E. coli BL21 (DE3), purified (Ni-NTA, Hi-Trap SP HP, Superdex 200)
B9: AFF4-THD Y1024A (domain or fragment, human, UniProt Q9UHB7 902-1163, looked up)
chain: RRTKLVFDDRNYSADHYLQEAKKLKHNADALSDRFEKAVYYLDAVVSFIECGNALEKNAQESKSPFPMYSETVDLIKYTMKLKNYLAPDATAADKRLTVLCLRCESLLYLRLFKLKKENALKASKTLTEHLKNSYNNSQAPSPGLGSKAVGMPSPVSPKLSPGNSGNYSSGASSASASGSSVTIPQKIHQMAASYVQVTSNFLYATEIWDQAEQLSKEQKEFFAELDKVMGPLIFNASIMTDLVRYTRQGLHWLRQDAKLIS
notes: AFF4 THD, human, residues 902-1163, with Y1024A; PDB 6K7P is the wild-type parent of the same limits; source: E. coli BL21 (DE3), purified (Ni-NTA, Hi-Trap SP HP, Superdex 200)
B10: AFF4-THD V1097A (domain or fragment, human, UniProt Q9UHB7 902-1163, looked up)
chain: RRTKLVFDDRNYSADHYLQEAKKLKHNADALSDRFEKAVYYLDAVVSFIECGNALEKNAQESKSPFPMYSETVDLIKYTMKLKNYLAPDATAADKRLTVLCLRCESLLYLRLFKLKKENALKYSKTLTEHLKNSYNNSQAPSPGLGSKAVGMPSPVSPKLSPGNSGNYSSGASSASASGSSVTIPQKIHQMAASYAQVTSNFLYATEIWDQAEQLSKEQKEFFAELDKVMGPLIFNASIMTDLVRYTRQGLHWLRQDAKLIS
notes: AFF4 THD, human, residues 902-1163, with V1097A; PDB 6K7P is the wild-type parent of the same limits; also called AFF4-THD^Val1097A; Val1097A; source: E. coli BL21 (DE3), purified (Ni-NTA, Hi-Trap SP HP, Superdex 200)
B11: AFF4-THD S1025A (domain or fragment, human, UniProt Q9UHB7 902-1163, looked up)
chain: RRTKLVFDDRNYSADHYLQEAKKLKHNADALSDRFEKAVYYLDAVVSFIECGNALEKNAQESKSPFPMYSETVDLIKYTMKLKNYLAPDATAADKRLTVLCLRCESLLYLRLFKLKKENALKYAKTLTEHLKNSYNNSQAPSPGLGSKAVGMPSPVSPKLSPGNSGNYSSGASSASASGSSVTIPQKIHQMAASYVQVTSNFLYATEIWDQAEQLSKEQKEFFAELDKVMGPLIFNASIMTDLVRYTRQGLHWLRQDAKLIS
notes: AFF4 THD, human, residues 902-1163, with S1025A; PDB 6K7P is the wild-type parent of the same limits; source: E. coli BL21 (DE3), purified (Ni-NTA, Hi-Trap SP HP, Superdex 200)

Columns and labels:
[1] = biological target: Flag-AFF4 F1014A, full length (human) (UniProt Q9UHB7)
[2] = biological target: Flag-AFF4 Y1096A, full length (human) (UniProt Q9UHB7)
[3] = biological target: the molecule itself; assay: SEC; analytical gel filtration, Superdex 75 10/300 increase, 25 mM Tris pH 8.0, 150 mM NaCl, 2 mM DTT; 6 mg/ml, 100 μl injected; self-association, dimer or monomer by elution volume

| Binder | binding result [3] | also measured |
| --- | --- | --- |
| B1 |  | HIV-LTR-luciferase reporter in NH1 cells, overexpressed Flag-AFF4 mutant against wild type (% less than wild type) [1]: 10 |
| B2 |  | HIV-LTR-luciferase reporter in NH1 cells, overexpressed Flag-AFF4 mutant against wild type (fold less than wild type) [2]: 1 |
| B3 |  | stoichiometry N [3]: 2 |
| B4 | binds |  |
| B5 | binds |  |
| B6 | binds |  |
| B7 |  | stoichiometry N [3]: 2 |
| B8 | binds |  |
| B9 | binds |  |
| B10 | binds |  |
| B11 | binds |  |
